# Assay results as given in the supplement of paper PMC10567573.
# B1: MYL5 (parent)
# chain: FQFASIDVAGNLDYKALSYVITHG
# B2: TRIM9 (parent)
# chain: CVQCKMPVCYQCLEEGKHSSHEVK
# Variants of: B1
# Assay: protein stability index of a GFP-peptide fusion (GPS, HEK-293T) (PSI 1-6); higher = more stable
# Settings: c terminus: a fixed tail appended
# 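Further: lentivirally expressed fusions sorted by FACS into six bins by GFP to DsRed ratio, PSI derived from sequencing read proportions per bin multiplied by bin number.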
row,Variant,protein stability index
1,V20T,2.29
2,V20G,2.81
3,V20Q,2.96
4,V20Y,1.3
5,V20R,2.46
6,V20F,3.64
7,V20D,1.34
8,V20A,3.37
9,V20H,3.27
10,D7N,2.8
11,D7E,2.83
12,D7S,3.9
13,D7I,3.19
14,D7G,2.38
15,D7K,2.52
16,D13N,3.69
17,D13L,2.49
18,D13V,2.86
19,T22Q,2.54
20,T22M,2.95
21,T22K,2.22
22,T22H,3.83
23,T22C,2.52
24,T22N,2.52

row,Variant,protein stability index
1,T22D,1.8
2,T22I,2.55
3,Q2L,2.78
4,Q2C,3.59
5,Q2P,3.25
6,Q2V,3.19
7,Q2K,2.89
8,Q2G,3.54
9,Q2R,4.64
10,A9Y,4.67
11,A9F,2.33
12,A9P,1.7
13,K15R,2.16
14,K15F,2.81
15,K15D,2.81
16,K15H,2.12
17,K15Y,3.8
18,K15E,1.14
19,K15G,1.5
20,L17W,2.39
21,L17H,2.06
22,L17N,1.39
23,L17T,2.2
24,L17C,3.94

row,Variant,protein stability index
1,L17K,2.71
2,L17D,1.94
3,N11S,3.23
4,N11W,2.82
5,N11C,3.05
6,N11P,3.96
7,N11K,2.17
8,N11E,2.83
9,N11D,1.17
10,S18I,2.66
11,S18L,1.83
12,S18E,1.56
13,I21E,2.11
14,I21Q,1.9
15,I21P,2.18
16,I21Y,1.65
17,I21V,2.26
18,A16V,3.37
19,A16Q,2.81
20,A16P,5.11
21,A16F,3.33
22,A16K,2.25
23,A16S,2.11
24,F1V,3.25

row,Variant,protein stability index
1,F1A,1.63
2,F1S,1.18
3,F1C,3.5
4,F1H,1.79
5,F1Q,2.23
6,F1G,2.09
7,F1R,1.67
8,G24Q,2.05
9,I6T,1.66
10,I6Q,2.92
11,I6Y,2.46
12,I6A,2.72
13,I6E,1.49
14,S5W,2.62
15,S5I,4.16
16,S5N,3.74
17,S5K,2.4
18,H23T,2.42
19,H23D,2.25
20,H23L,2.78
21,H23Q,3.48
22,H23A,2.01
23,L12K,1.98
24,L12S,2.44

row,Variant,protein stability index
1,L12D,1.67
2,L12T,1.83
3,L12Q,3.21
4,A4F,2.42
5,A4P,2.19
6,A4D,1.9
7,A4H,4.96
8,A4V,1.99
9,A4Q,3.96
10,Y14P,2.28
11,Y14K,2.48
12,Y14M,2.4
13,Y14D,2.21
14,Y14E,1.25
15,F3V,2.75
16,F3H,2.11
17,F3S,1.93
18,F3T,1.22
19,F3G,3
20,F3N,1.36
21,F3M,2.36
22,F3I,2.29
23,F3C,2.41
24,Y19T,1.83

row,Variant,protein stability index
1,Y19N,2.41
2,Y19P,1.43
3,Y19R,2.11
4,Y19W,2.69
5,Y19H,2.35
6,Y19S,1.73
7,G10H,1.84
8,G10D,2.05
9,G10I,2.02
10,G10A,2.49
11,G10L,1.72
12,G10Q,3.41
13,G10N,2.84
14,G10V,2.6
15,V8H,3.1
16,V8G,3.17
17,V8M,2.67
18,V8C,2.11
19,V8K,2.17
20,V8D,4.22
21,V8E,2.42
22,V8P,2.55

# Variants of: B2
# Assay: as above
# Settings: c terminus: a fixed tail appended
row,Variant,protein stability index
1,C4T,2.93
2,C4H,3.62
3,C4Q,3.39
4,C4W,3.17
5,C4P,4.11
6,C4R,2.83
7,C4K,4.13
8,C4S,3.23
9,E22F,3.56
10,E22G,3.32
11,E22T,4
12,E22K,4.31
13,E22S,3.68
14,E22A,3.57
15,E22R,3.12
16,E22W,3.11
17,E22L,3.74
18,E22M,3.65
19,E22Y,3.28
20,C1N,2.79
21,C1V,3.23
22,C1W,2.98
23,C1G,2.88
24,C1I,3.08

row,Variant,protein stability index
1,C1H,4.52
2,V23A,4.37
3,V23H,3.32
4,V23C,4.65
5,V23K,3.68
6,V23R,3.24
7,V23N,3.98
8,V23W,3.38
9,V23S,3.37
10,V23P,4.24
11,E14N,3.66
12,E14M,3.17
13,E14K,3.99
14,E14R,3.83
15,E14Q,4.17
16,E14I,3.55
17,E14A,3.12
18,E14T,3.53
19,E15S,3.81
20,E15Y,3.36
21,E15M,3.75
22,E15Q,3.76
23,E15F,2.82
24,E15W,2.72

row,Variant,protein stability index
1,E15G,4.15
2,E15K,3.67
3,E15V,3.47
4,E15T,3.69
5,E15I,3.82
6,E15P,3.88
7,E15D,4.07
8,C9D,4.45
9,C9G,4.47
10,C9W,2.96
11,C9Y,2.8
12,C9S,4.24
13,C9L,3.28
14,C9Q,4.09
15,C9M,3.64
16,H18F,3.78
17,H18Q,3.47
18,H18M,3.93
19,H18T,4.11
20,H18E,3.56
21,H18S,4.42
22,H18V,3
23,H18P,3.28
24,H18R,3.82

row,Variant,protein stability index
1,H18W,3.04
2,H18G,3.63
3,H21N,3.75
4,H21D,3.88
5,H21G,4.16
6,H21I,3.66
7,M6T,3.96
8,M6I,3.4
9,M6L,3.99
10,M6V,4.13
11,M6K,4.46
12,M6N,4.22
13,M6R,4.17
14,M6G,4.93
15,M6D,4.71
16,P7Q,3.83
17,P7T,3.08
18,P7R,3.51
19,P7W,3.18
20,P7A,4.02
21,P7N,4.14
22,P7L,3.28
23,P7K,3.84
24,P7G,4.59

row,Variant,protein stability index
1,P7D,3.11
2,K24W,2.88
3,K24T,3.7
4,K24V,3.8
5,K24R,3.46
6,K24F,2.85
7,K24L,3.8
8,K24N,3.89
9,K24H,3.92
10,K24D,4.73
11,Q3C,3.99
12,Q3P,2.94
13,Q3D,3.91
14,Q3F,3.1
15,Q3S,4.12
16,S19L,3.89
17,S19R,3.73
18,S19D,3.8
19,S19F,3.37
20,S19H,3.45
21,S19N,4.38
22,S19M,3.72
23,S19E,4.62
24,Q11D,4.05

row,Variant,protein stability index
1,Q11Y,3.52
2,Q11F,3.65
3,Q11W,2.93
4,Q11K,3.95
5,Q11H,3.2
6,Q11M,3.17
7,Q11N,4.27
8,Q11L,2
9,K5F,2.52
10,K5M,3.87
11,K5W,3.03
12,K5L,2.58
13,K5A,3.4
14,K5I,2.05
15,K5N,4.04
16,V2H,4.63
17,V2L,3.5
18,V2C,3.98
19,V2R,3.8
20,V2W,3.16
21,V2F,3.51
22,V2G,3.6
23,V2K,4.29
24,G16Q,2.64

row,Variant,protein stability index
1,G16D,4.58
2,G16N,4.09
3,G16V,3.62
4,G16C,4.33
5,G16E,3.94
6,G16M,3.71
7,K17D,2.88
8,K17S,3.42
9,K17Q,4.5
10,K17G,4.38
11,K17Y,3.54
12,K17F,3.1
13,K17N,3.65
14,Y10S,3.97
15,Y10F,4
16,Y10T,3.52
17,Y10Q,4.16
18,Y10W,2.51
19,Y10R,4.27
20,Y10E,4.32
21,C12P,3
22,C12Q,4.03
23,C12H,4.34
24,C12W,2.92

row,Variant,protein stability index
1,S20E,3.98
2,S20I,2.9
3,S20R,4.38
4,S20V,3.75
5,S20A,3.68
6,S20H,4.3
7,S20T,4.07
8,S20N,3.69
9,S20F,2.59
10,S20D,4.3
11,V8L,3.65
12,V8D,4.21
13,V8A,4.13
14,V8F,4.03
15,V8Q,4.33
16,V8H,4.89
17,V8I,3.66
18,L13H,4.55
19,L13D,4.04
20,L13M,4.21
21,L13G,4.81
22,L13Q,4.48
23,L13I,4.08
24,L13F,3.86
